# Laboratory results taken from paper PMC9613699.
# Assay: western blot, endogenous PD-L1 in RBMS1-depleted MDA-MB-231, ±IFN-γ
# Details: glycan lost; control: untreated
substance,measurement,value
"PD-L1 (programmed death ligand 1; B7-H1, CD274): tunicamycin",other: dependence of PD-L1 protein level on RBMS1,abolishes
